Laboratory results taken from US20230357447A1 (JANUX THERAPEUTICS, published 2023).
Ends that are not written are not given here.

Columns and labels:
[1] = target: T1, Anti-CD28 scFv (VH-linker 1-VL) (biotinylated (site not stated)); test: phage ELISA, captured biotinylated scFv; background signal 0.068
T1 construct: biotinylated and captured on neutravidin coated plates in the phage ELISA

[2] = target: T1, Anti-CD28 scFv (VH-linker 1-VL); test: phage ELISA, scFv wells pre-incubated with soluble CD28 (competitor); background signal 0.068
[3] = target: T2, Ab-12, anti-PD-L1xCD28 non-masked antibody in Vh format; test: competition ELISA: peptide titrated against 5 nM Ab-12; binding of Ab-12 to captured biotinylated CD28 antigen is read
T2 construct: also called PDL1xCD28 non-masked (Vh)

[4] = target: T1, Anti-CD28 scFv (VH-linker 1-VL); test: phage ELISA, captured biotinylated scFv; background signal 0.061
[5] = target: T1, Anti-CD28 scFv (VH-linker 1-VL); test: phage ELISA, scFv wells pre-incubated with soluble CD28 (competitor); background signal 0.061
[6] = target: T1, Anti-CD28 scFv (VH-linker 1-VL); test: phage ELISA, captured biotinylated scFv; background signal 0.072
[7] = target: T1, Anti-CD28 scFv (VH-linker 1-VL); test: phage ELISA, scFv wells pre-incubated with soluble CD28 (competitor); background signal 0.072
[8] = target: T1, Anti-CD28 scFv (VH-linker 1-VL); test: phage ELISA, captured biotinylated scFv; background signal 0.079
[9] = target: T1, Anti-CD28 scFv (VH-linker 1-VL); test: phage ELISA, scFv wells pre-incubated with soluble CD28 (competitor); background signal 0.079
[10] = target: T1, Anti-CD28 scFv (VH-linker 1-VL); test: phage ELISA, captured biotinylated scFv; background signal 0.078
[11] = target: T1, Anti-CD28 scFv (VH-linker 1-VL); test: phage ELISA, scFv wells pre-incubated with soluble CD28 (competitor); background signal 0.078
[12] = target: T1, Anti-CD28 scFv (VH-linker 1-VL); test: phage ELISA, captured biotinylated scFv; background signal 0.073
[13] = target: T1, Anti-CD28 scFv (VH-linker 1-VL); test: phage ELISA, scFv wells pre-incubated with soluble CD28 (competitor); background signal 0.073
[14] = target: T1, Anti-CD28 scFv (VH-linker 1-VL); test: phage ELISA, scFv wells pre-incubated with soluble CD28 (competitor); background signal 0.063
[15] = target: T1, Anti-CD28 scFv (VH-linker 1-VL); test: phage ELISA, captured biotinylated scFv; background signal 0.066
[16] = target: T1, Anti-CD28 scFv (VH-linker 1-VL); test: phage ELISA, scFv wells pre-incubated with soluble CD28 (competitor); background signal 0.066
[17] = target: T1, Anti-CD28 scFv (VH-linker 1-VL); test: phage ELISA, captured biotinylated scFv; background signal 0.063
[18] = target: T1, Anti-CD28 scFv (VH-linker 1-VL); test: phage ELISA, captured biotinylated scFv; background signal 0.071
[19] = target: T1, Anti-CD28 scFv (VH-linker 1-VL); test: phage ELISA, scFv wells pre-incubated with soluble CD28 (competitor); background signal 0.071

B1: Phage-54 (peptide)
peptide: MNWCPRDMWYQCFN
[1]
  Phage binding ELISA CD28 scFv signal: 1.95
[2]
  Phage binding ELISA CD28 scFv signal in presence of CD28: 0.177

B2: Peptide-50 (peptide)
peptide: MDWCPVHLWSVCFA
modifications: cysteine pairing not given here; also: biotinylated, site not given here
notes: Synthetic biotinylated peptide loaded on streptavidin biosensors
[3]
  IC50: 2340 nM

B3: Phage-28 (peptide)
peptide: MDWCPRDLWSECFF
[1]
  Phage binding ELISA CD28 scFv signal: 2.57
[2]
  Phage binding ELISA CD28 scFv signal in presence of CD28: 0.218

B4: Peptide-49 (peptide)
peptide: MHWCPVDLWYLCYN
modifications: cysteine pairing not given here; also: biotinylated, site not given here
notes: as for B2
[3]
  IC50: 170 nM

B5: Phage-40 (peptide)
peptide: MDWCPIDMWDQCFN
[4]
  Phage binding ELISA CD28 scFv signal: 2.66
[5]
  Phage binding ELISA CD28 scFv signal in presence of CD28: 0.297

B6: Phage-116 (peptide)
peptide: MDWCPRDLWYACFA
[6]
  Phage binding ELISA CD28 scFv signal: 2.47
[7]
  Phage binding ELISA CD28 scFv signal in presence of CD28: 0.242

B7: Phage-37 (peptide)
peptide: MHWCPVDLWYLCYN
[8]
  Phage binding ELISA CD28 scFv signal: 2.66
[9]
  Phage binding ELISA CD28 scFv signal in presence of CD28: 0.417

B8: Phage-88 (peptide)
peptide: MDWCPIHLWHYCFN
[10]
  Phage binding ELISA CD28 scFv signal: 2.6
[11]
  Phage binding ELISA CD28 scFv signal in presence of CD28: 0.453

B9: Phage-57 (peptide)
peptide: MDWCPRHRWVDCFY
[12]
  Phage binding ELISA CD28 scFv signal: 0.478
[13]
  Phage binding ELISA CD28 scFv signal in presence of CD28: 0.11

B10: Phage-22 (peptide)
peptide: MNWCPKDIWYLCFN
[12]
  Phage binding ELISA CD28 scFv signal: 2.62
[13]
  Phage binding ELISA CD28 scFv signal in presence of CD28: 0.168

B11: Phage-38 (peptide)
peptide: MDWCPVHLWSVCFA
[6]
  Phage binding ELISA CD28 scFv signal: 2.65
[7]
  Phage binding ELISA CD28 scFv signal in presence of CD28: 0.302

B12: Phage-97 (peptide)
peptide: MDWCPKDLWDYCFA
[10]
  Phage binding ELISA CD28 scFv signal: 2.57
[11]
  Phage binding ELISA CD28 scFv signal in presence of CD28: 0.165

B13: Phage-56 (second entry so labelled, SEQ ID NO: 255) (peptide)
peptide: MDWCPRYLWNECFY
notes: label printed as Phage-56 between Phage-65 and Phage-67, probably Phage-66
[8]
  Phage binding ELISA CD28 scFv signal: 2.54
[9]
  Phage binding ELISA CD28 scFv signal in presence of CD28: 0.358

B14: Phage-102 (peptide)
peptide: MDWCPRYLWAECFY
[14]
  Phage binding ELISA CD28 scFv signal in presence of CD28: 0.354

B15: Phage-19 (peptide)
peptide: MDWCPIDLWNECFF
[15]
  Phage binding ELISA CD28 scFv signal: 2.52
[16]
  Phage binding ELISA CD28 scFv signal in presence of CD28: 0.187

B16: Phage-59 (peptide)
peptide: MDWCPRDSWHLCFA
[12]
  Phage binding ELISA CD28 scFv signal: 2.45
[13]
  Phage binding ELISA CD28 scFv signal in presence of CD28: 0.147

B17: Phage-26 (peptide)
peptide: MDWCPRDLWHECFA
[17]
  Phage binding ELISA CD28 scFv signal: 2.71
[14]
  Phage binding ELISA CD28 scFv signal in presence of CD28: 0.277

B18: Phage-36 (peptide)
peptide: MDWCPRYLWHVCFA
[6]
  Phage binding ELISA CD28 scFv signal: 2.48
[7]
  Phage binding ELISA CD28 scFv signal in presence of CD28: 0.226

B19: Phage-33 (peptide)
peptide: MDWCPRFMWDECFN
[8]
  Phage binding ELISA CD28 scFv signal: 2.68
[9]
  Phage binding ELISA CD28 scFv signal in presence of CD28: 0.256

B20: Phage-114 (peptide)
peptide: MDWCPRYLWFECFA
[15]
  Phage binding ELISA CD28 scFv signal: 2.5
[16]
  Phage binding ELISA CD28 scFv signal in presence of CD28: 0.21

B21: Phage-86 (peptide)
peptide: MDWCPRHLWAECFF
[15]
  Phage binding ELISA CD28 scFv signal: 2.61
[16]
  Phage binding ELISA CD28 scFv signal in presence of CD28: 0.292

B22: Phage-79 (peptide)
peptide: MDWCPRDLWHECFS
[15]
  Phage binding ELISA CD28 scFv signal: 2.65
[16]
  Phage binding ELISA CD28 scFv signal in presence of CD28: 0.382

B23: Phage-107 (peptide)
peptide: MDWCPRDLWAECFN
[5]
  Phage binding ELISA CD28 scFv signal in presence of CD28: 0.207

B24: Phage-45 (peptide)
peptide: MDWCPRPLWHECFS
[10]
  Phage binding ELISA CD28 scFv signal: 2.35
[11]
  Phage binding ELISA CD28 scFv signal in presence of CD28: 0.121

B25: Phage-73 (peptide)
peptide: MDWCPRALWHECFN
[18]
  Phage binding ELISA CD28 scFv signal: 2.69
[19]
  Phage binding ELISA CD28 scFv signal in presence of CD28: 0.401

B26: Phage-63 (peptide)
peptide: MDWCPRALWAECFN
[1]
  Phage binding ELISA CD28 scFv signal: 2.68
[2]
  Phage binding ELISA CD28 scFv signal in presence of CD28: 0.339

B27: Phage-106 (peptide)
peptide: MDWCPIYLWDECFN
[5]
  Phage binding ELISA CD28 scFv signal in presence of CD28: 0.215

B28: Phage-75 (peptide)
peptide: MDWCPRSHWHVCYN
[6]
  Phage binding ELISA CD28 scFv signal: 1.95
[7]
  Phage binding ELISA CD28 scFv signal in presence of CD28: 0.281

B29: Phage-39 (peptide)
peptide: MDWCPMHLWHQCFN
[12]
  Phage binding ELISA CD28 scFv signal: 2.56
[13]
  Phage binding ELISA CD28 scFv signal in presence of CD28: 0.299

B30: Phage-25 (peptide)
peptide: MDWCPRDLWDLCFA
[10]
  Phage binding ELISA CD28 scFv signal: 2.7
[11]
  Phage binding ELISA CD28 scFv signal in presence of CD28: 0.219

B31: Phage-42 (peptide)
peptide: MDWCPRHLWVHCFN
[18]
  Phage binding ELISA CD28 scFv signal: 2.5
[19]
  Phage binding ELISA CD28 scFv signal in presence of CD28: 0.254

B32: Phage-61 (peptide)
peptide: MVSCPTTMWNRCFN
[8]
  Phage binding ELISA CD28 scFv signal: 1.33
[9]
  Phage binding ELISA CD28 scFv signal in presence of CD28: 0.072

B33: Phage-85 (peptide)
peptide: MDWCPMDLWYQCFN
[17]
  Phage binding ELISA CD28 scFv signal: 2.62
[14]
  Phage binding ELISA CD28 scFv signal in presence of CD28: 0.187

B34: Phage-50 (peptide)
peptide: MDWCPPYLWNVCFS
[17]
  Phage binding ELISA CD28 scFv signal: 1.64
[14]
  Phage binding ELISA CD28 scFv signal in presence of CD28: 0.1

B35: Phage-48 (peptide)
peptide: IDWCPRYLWDECYN
[4]
  Phage binding ELISA CD28 scFv signal: 2.24
[5]
  Phage binding ELISA CD28 scFv signal in presence of CD28: 0.153
